Consider 26 sequences from the DeepSol protein solubility set.

A short description of the data set: soluble on expression in E. coli; label from the status in PepcDB or PDB records.
As to “MCMDEIKKWKNVKAKKITETLNKRHFKASYVETLEEAKEKLISMIEEGSSVAIGGSTTLSQMGMVDVLRNGNYKFFDRYQNLPFDPDIVEIHRKSLTADYLITGTNAITENGELVNTDCTGNRVAPMIFGPKNVIIVAGINKIVENIDAALKRIREIAPMNSKRIKHETPCVETGFCVDCDCKKRICNFTTIIHNGIKFEGRIKIIIIADELGYLEHHHHHH”, the “soluble on expression in E. coli” value was “not soluble”.
To “MCMDSNVSWMIREKIERTIKNLEKNNIEAYNVKNSKQLIELIDKLIPEGETVAVGGSMTLFETGIIDHIRSKNYNFLDRYKEGLSKEDIKDVFRKSFFADSYIVSTNALTENGELYNVDGNGNRVAAMLFGPDKVIVIAGINKIVKDVDEAIKRNKFVSAPINAKRLNKATPTKVGYCMDCKSQDRICNEYTLIKRQGVKGRIKVIIVEEELGYLEHHHHHH” belongs “soluble”; to “MCNLTIHNIENYENDPQLRLIPWILWENLFQHFISANELSLMTLSYKEAIHIFLPGTKNMEQVRQLLCLYYAHYNRNAKQLWSDAHKKGIKSEVICFVAAITGCSSALDTLCLLLTSDEIVKVIQAENYQAFRLAAENGHLHVLNRLCELAPTEIMAMIQAENYHAFRLAAENGHLHVLNRLCELAPTEATAMIQAENYYAFRWAAVGRGHHNVINFLLDCPVMLAYAEIHEFEYGEKYVNPFIARHVNRLKEMHDAFKLSNPDGVFDLVTKSECLQGFYMLRNLIRRNDEVLLDDIRFLLSIPGIKALAPTATIPGDANELLRLALRLGNQGACALLLSIPSVLALTKANNYYINETGGRLDLRAVALEHHHHHH”, “soluble”.
Take “MCSHYQALKDQERMRKYFAAHPSAEVPADMWPRYMGAFIRRPLEWDSGDEAVPEREAATGRWGMIPPGTRPEKLAEASKKNTSNARSETAHQLWTFRNAWAKAQHCIIPADAIYEPDWRSGKAVPTRFTRADGAPLGIAGLWDRYRNAAGEWIDSYTMLTINADDDPLFRDYHQAGKEKRMVVILPDGAYGDWLTAPATDTRDFLLPYPADRLVAAAVKLEHHHHHH”: the “soluble on expression in E. coli” value is listed as “soluble”.
As to “MCSYARATDANGESFIYCRTWQGQFFRFKLEDRVYDYVTTFAKSDACLATDPDDPTKIYCALNEYNKITCIDLTKNPEDSGFETDVCGIQGPGAYQDGHVSVARLNNPQQILSMHDPETGEKVIYICDANNNCVRMYNMETKLMSTVAGIGGKSGYAAGNPTVSRMNRPYGICITPENDIYVADAGNKVIMKLAFMLEHHHHHH”, the “soluble on expression in E. coli” value is listed as “not soluble”.
For “MCTVVIDRRPGDPWPLLVAANRDELADRPWLPPARHWPSRPEVIAGLDELAGGTWMGLNDWGVVACVLNREGTLGPLAGRRSRGELVLDALDMADARDAAEALADIDPRAYRPFNLIVADNRDAFWIRHADAEGRAAVEVHPLAEGLTLMTAHDPDDPLDARARAYLPRFRAAPRPDPQLRDGWAPWTHLLGSRDHAVDDGPTAAMCFSLAGGFGTSSSSLIALPAMERIGVDPLYLFAPAPPDQTDYRPVLEHHHHHH” the value was “soluble”; for “MDADSSNSTVTPGRLPDGLSSCPCFYLGKKLMNLSANAQATLLLTSDFSRAAASKYKPLSNSEWGKFALWLKHQRISPAELLVPQPQEKLTGWSDPRISQERILGLLARGHSLALAVDKWQRAGLWILTRGDADYPVRLKNRLRTDAPPVLFGCGNKALLQAEGMAIVGSRDAPTDDLRYTQQLAAKLAQQGICVISGGARGIDECAMASALEAGGTAVGVLADSLLKTSTLVKWREGLIAGNLVLISPFYPEVRFTVGNAMARNKYIYCLAESAMVVRAGMTGGTITGAMEALKHQWLPVQVKPNQDMQSANSRLVENGASWSAEQAENVTIRLPDVPGLMYDRALRNAQPELFSLHEDDANYAVMPAYTPVDFYQLFVAELAILAKESISIERLASCTGLTIEQISVWLNRAEEEGRVIRLGEGHYQFR”, “not soluble”; for “MDASKSLPIRKHTTLLNRLPETRFATQLDKAKANWIVFAEYLSPRHFEDIDFFTGFYNPVLETWKVGQYEVALMAGELTSQHETILKSLNIDYASLNEVPDLSAPG”, “not soluble”.
For “MDAYLDYISGIWSKIDKKFHDQDISAKVAILQLVARPYYYWIQENPAQEKPVVEESQPRKQDNLREITSKYGDALQVDSDTVKIVKRLNTDEFNKLKEDLRQLGFLYDAQLRGFKKKQ” the value was “not soluble”.
With “MDCCEERGVARHKGLSQVGTPGCPRWSQAVSCRCSAYREAAVTAVQMPLTPGYGETPLPHDELAALLPEVVEVLDKPITRADVYDLEQGLQDQVFDLLMPTAVEGSLSLDELLSDHFVRDLHARMFGPV”, the “soluble on expression in E. coli” value is “soluble”.
For “MDCYVGATTGALKGAILKENTFQNLNEIKSLDPKSDEITSMIWNDEQQTEILIARVNRDLQLLGIEENELVSILTVTGGTGPIKGLHKADEKIVTCVESGELQIWNDKSEILSEWKTGPGVAVMRGSTEKPEIVTGGMKNLLKTWNLETGQQTWSAKNVPPDMLGLEIPIMITDARFIPGQNTILEATKLHEMRLYDPRAQRRPVKKIPFMENPIMCTSLTYKTNQILAANSIGEMGLFDLRSKVHPMCKFKGQAGSIRSITAHPTLPLAASVGIDRFLRVHDLQSRKLIHKIYCKTRLNRVLLRDNLSILNDKKPASKKEINEDETEYGNMTKDGYRSENEDDEDDDDVIEEDDVWGVMEPVKRAKKSSDDDVEEIQITSETIAVPSKNSQKLKRKNVLEADEIKEEEGDSDEAEVKKTTKKVLKKKKRV” the value was “not soluble”; for “MDDLTIEILTDDADYDLQRFDCGEEALNLFLTTHLVRQHRNKILRAYILCRNTPERQVLGYYTLCGSCFERAALPSKSKQKKIPYKNIPSVTLGRLAIDRSLQGQGWGATLVAHAMNVVWSASLAVGIHGLFVEALNEKAHTFYKSLGFIPLVGENENALFFPTKSIELLFTQSD”, “not soluble”; for “MDEIPADIRNEIIYYYRLSRKVLLGLYNKSIIFVLPSIVEGMPSPPLEAMACGCAVVVTDNGGVNEYIKDGLNGIVCPVRDSYCLYQKVILLINNKALREQMIQDGLETAKEFSYDNMNKNFIRLIEEVQRRKSLEHHHHHH”, “not soluble”.
As for “MDEKKCWLVVCVQSNREKKTYERLSALGFESFLPLQEETRRWSDRSKKVQRVVIPMVVFARIAPSERISVLRLPSVSRFMVLRGESAPAIIPDAQMERFRFMLDYSEEAVEMCSERIQPGEQVKVIKGPLTGLTGELITMDGKSKVAVRINMLGAAMVEVPVGFVERI”, the “soluble on expression in E. coli” value is reported as “not soluble”.
For “MDENTRNLIKKVERSVFAGNRAAAAKELGEIGDFDAVPVLLKALEDSSSKVKAAASEALGEINDPDAVPCLMKMLDYPESYVKKAAIIALGKIGTQEAVSGIVKGFRDPDKLIRKESVKALMRIGSPEAVSGLTATFTCPDSPLKRISITALGKINTYEAACGLVKALEDPDNRVRQQAVETLGKRGISDVLEELMELLKDSRQPVQEAASEALCKIIGGSESVPVLVKALGASDRKVRKASIEALGKAGNSEAVSALLKELDDDDWYLRSRAADVLADIASPEAALGLVKALDLHDAPVRKLIVSALGKIGSPETIEGLVKALDDPDNSIREAATLGLGKTGKVEAVPGLLRALHDPKNTVQEAAATSLGDMKAREAVPEFLRILEDPDSLIHKSVIFSLEKIGTPEAVAGLSRALNNPDAMVRKAAAKSLEKIKKSGLPLEKAKNIEISGFNISE” the value was “not soluble”.
For “MDEQEFRKQLTLKPVEEEHIDQFNELLSYVFQVTEADIEESGFENKRAFIKSKQPILELSKVFGWFHENQLISQIAIYPCEVNIHGALYKMGGVTGVGTYPEYANHGLMKDLIQTALEEMRQDKQWISYLFPYNIPYYRRKGWEIMSDKLSFKIRDTQLPKTVPVPGMIERLAVDHPDVFDVYARFARQNHGALIRSAFNWEEYWRFENEEERTAAVYYGANQEPLGVLFYWVADEVFHIKEMFYLNQEARNGLWNFITAHFSMVYWVKGDIYKNEPLAFLLEDSQIKESIEPYYMARIVDVKAFLENFPFESTAKPFHFVVKDPVAEWNNGIFGLIWDENDQVTITDEPLGTAVHLDIQTLTCLVMNYRRPSYLHRIERIDTDKETLNSLERIFPDQEAYFSDYF” the value was “soluble”; for “MDFDRIAMRTTDPAWQKGSAPATPSPVEADAKVTMRLRYTKTGAMRYLSHLEMIGLFTRAVGRARLPIRFSQGFHPHPKFSFATALSVGVESWAEYLDMELIPSLTPGEVRDRLNAALPEGMRIVEAVVIPPGTPSLSVLMDKVRYRIILLEEAARDLAARAEAFLARDSFPLRRAKKGRIQEYDLEHHHHHH”, “not soluble”; for “MDFLKQPCAPLDFDLSREQIEGMLRSARFIKGSFSTRVVGHLPIDNSFRQVSVAIENETSSSIEIMTLERGDTFCGIPLKQRKIPFQNSLKSADIDFTYDDSGIDLTNAPVSFFIEGGRVASICWHHKHRN”, “not soluble”.
For the sequence “MDGEEKTYGGCEGPDAMYVKLISSDGHEFIVKREHALTSGTIKAMLSGPGQFAENETNEVNFREIPSHVLSKVCMYFTYKVRYTNSSTEIPEFPIAPEIALELLMAANFLDC”, the “soluble on expression in E. coli” value is given as “soluble”.
Consider “MDHALFTHFVGRPRHCRLEMLILDEQVSKRSWDTTVYHRRRKHLPRRRAPCGPQRPAEIPKRRKKAAVLLFWHDLCWLFRRLFFPREDSEPLMSDPARSPEEEELEHHHHHH”, for which the “soluble on expression in E. coli” value is “not soluble”.
With “MDILFRIRGGFDLAFQLAPPKEMFIKNALRQVLSDLTTKLSSDALVLRVCNSSVYLWPNSDANTGELTDSSACKNVVRFIQFDQEEDTKRKFIKKKDKKLTDTQQIVNIDLMLEISTPLGAVTPILERENEEHHYINMSLPIDAVVSVAPEESWGKVRKLLVDAILRQLVDVEKCILRYMKGTSIVVPEPLHFQLPGKKNLVTVLYPSGIPDDQLQAYRKELHDLFNLPHDRPYFKRINAYHFPDELYKDGYIRNPHTYLSPPNIEGSMICVVQGTYAYHHYMQDRIDDNGWGCAYRSLQTICSWFRHQGYTERSIPTHREIQQALVDAGDKPATFVGSRQWIGSIEVQMVLNQLIGVTSKILFVNQGSEMASQGRELANHFQNVGTPVMVGGGVLAHTILGVAWNETTGQIKFLILDPHYTGAEDLQVMLEKGWCGWKSPDFWNKDAYYNLCLPQRPNAL”, the “soluble on expression in E. coli” value was “soluble”.
To “MDILLVDGYNMIGAWPQLKDLKANSFEEARDVLIQKMAEYQSYTGNRVIVVFDAHLVKGLEKKQTNHRVEVIFTKENETADERIEKLAQALNNIATQIHVATSDYTEQWAIFGQGALRKSARELLREVETIERRIERRVRKITSEKPAGKIALSEEVLKTFEKWRRGDLDLEHHHHHH” belongs “not soluble”.
For “MDILSDIANAVLPQDVVSKVESKRAVAVLRGTAVFGTVWLTQKAEGEETEFEGEIKGLSPGLHGFHIHQYGDSTDGCTSAGPHFNPCKMNHGGRDSVVRHVGDLGNVEAGADGVAKIKFSDKVVSLFGANTVIGRSMVVHVDRDDLGQGIDDKAEESLKTGNAGARAACGVIALAAPA”, the “soluble on expression in E. coli” value was “not soluble”.
For “MDIPVFTMVGEWKCKEGEWKFEPKEGIFGRCVRVQETMTYTDFVRTLREAFSLKSTEINPIISYWMLGEMSVLIDTKHPPVYIDSQMGLETFFFGSWWVSFSQLVRLFQ” the value was “not soluble”; for “MDIQTRKSILWDAFEELKTRWGADEKFLERVEEEELTVDGLPESKVRDLIELREKYQLDELEFLFIVGTAVGLYQGQKQVKEILQRRMSALNEFVSSLVGREL”, “not soluble”.
As for “MDITNIKEMNYEEVFSITITVDKPILIGQDDIVGRRQLIPIISGKVSGNNFNGKVLPGGIDSQIVRPDGKCELSARYAIRLDDGAAIYIENNGIRTVPDEYIEAVKSGEFVDPNAYYFRTIPTFETYSPKYKWMMNHIFVCCASRLPENVLLKFYKIS”, the “soluble on expression in E. coli” value is given as “soluble”.
